Consider five substances from patent publication US20200264182A1, “METHOD FOR DETECTING PROSTATE CANCER” (J-OIL MILLS, INC., priority 2017, published 2020).

In test [1] the target is serum fucosylated PSA (prostate specific antigen) (human) (UniProt P07288). Kind of test: sandwich ELISA, anti-PSA antibody capture, biotin-lectin detection, pH 7.4; serum of Healthy 7. In general terms: An ELISA detects its analyte on a solid surface through an enzyme-linked reagent.
Test [2] has the same target. The experiment in a line: sandwich ELISA, anti-PSA antibody capture, biotin-lectin detection, pH 7.4; serum of Prostate cancer 2 (GS 5).
Test [3] has the same target. Kind of test: sandwich ELISA, anti-PSA antibody capture, biotin-lectin detection, pH 7.4; serum of Healthy 4.
For test [4] the target is unchanged. Kind of test: sandwich ELISA, anti-PSA antibody capture, biotin-lectin detection, pH 7.4; serum of Healthy 6.
Test [5] shares this target. The experiment in a line: sandwich ELISA, anti-PSA antibody capture, biotin-lectin detection, pH 7.4; sera of subgroup GS6, n=2.
For test [6] the target is unchanged. The experiment in a line: sandwich ELISA, anti-PSA antibody capture, biotin-lectin detection, pH 7.4; serum of Prostate cancer 1 (GS 4).
Test [7] has the same target. The experiment in a line: sandwich ELISA, anti-PSA antibody capture, biotin-lectin detection, pH 7.4; serum of Prostate cancer 5 (GS 7).
Test [8] has the same target. Kind of test: sandwich ELISA, anti-PSA antibody capture, biotin-lectin detection, pH 7.4; serum of Healthy 5.
For test [9] the target is unchanged. The experiment in a line: sandwich ELISA, anti-PSA antibody capture, biotin-lectin detection, pH 7.4; serum of Prostate cancer 6 (GS 7).
For test [10] the target is unchanged. Kind of test: sandwich ELISA, anti-PSA antibody capture, biotin-lectin detection, pH 7.4; serum of Healthy 2.
The target is the same in test [11]. The experiment in a line: sandwich ELISA, anti-PSA antibody capture, biotin-lectin detection, pH 7.4; sera of subgroup Negative (GS5 or less), n=2.
The target is the same in test [12]. The experiment in a line: sandwich ELISA, anti-PSA antibody capture, biotin-lectin detection, pH 7.4; serum of Prostate cancer 8 (GS 8).
For test [13] the target is unchanged. The experiment in a line: sandwich ELISA, anti-PSA antibody capture, biotin-lectin detection, pH 7.4; serum of Prostate cancer 4 (GS 6).
Test [14] shares this target. Kind of test: sandwich ELISA, anti-PSA antibody capture, biotin-lectin detection, pH 7.4; serum of Prostate cancer 9 (GS 8).
The target is the same in test [15]. Kind of test: sandwich ELISA, anti-PSA antibody capture, biotin-lectin detection, pH 7.4; sera of subgroup GS7, n=2.
The target is the same in test [16]. The experiment in a line: sandwich ELISA, anti-PSA antibody capture, biotin-lectin detection, pH 7.4; serum of Prostate cancer 3 (GS 6).
Test [17] has the same target. The experiment in a line: sandwich ELISA, anti-PSA antibody capture, biotin-lectin detection, pH 7.4; serum of Healthy 3.
For test [18] the target is unchanged. The experiment in a line: sandwich ELISA, anti-PSA antibody capture, biotin-lectin detection, pH 7.4; serum of Healthy 1.
The target is the same in test [19]. The experiment in a line: sandwich ELISA, anti-PSA antibody capture, biotin-lectin detection, pH 7.4; serum of Prostate cancer 7 (GS 8).
For test [20] the target is unchanged. The experiment in a line: sandwich ELISA, anti-PSA antibody capture, biotin-lectin detection, pH 7.4; sera of subgroup GS8 or more, n=3.
For test [21] the target is unchanged. The experiment in a line: sandwich ELISA, anti-PSA antibody capture, biotin-lectin detection, pH 7.4; sera of the healthy person group (n=7).
Test [22] has the same target. The experiment in a line: sandwich ELISA, anti-PSA antibody capture, biotin-lectin detection, pH 7.4; sera of the prostate cancer patient group (n=9).
Test [23] shares this target. The experiment in a line: sandwich ELISA, anti-PSA antibody capture, biotin-lectin detection, lectin reaction pH 9.6; serum of Prostate cancer 4.
The target is the same in test [24]. The experiment in a line: sandwich ELISA, anti-PSA antibody capture, biotin-lectin detection, lectin reaction pH 7.4; serum of Healthy 1.
For test [25] the target is unchanged. The experiment in a line: sandwich ELISA, anti-PSA antibody capture, biotin-lectin detection, lectin reaction pH 7.4; serum of Prostate cancer 4.
The target is the same in test [26]. Kind of test: sandwich ELISA, anti-PSA antibody capture, biotin-lectin detection, lectin reaction pH 9.6; serum of Healthy 1.

Consider “Aleuria aurantia lectin (AAL), biotin-labeled (from UniProt P18891 2-313)”, for which the AAL reaction value amounted to 1030 U/mL in [1]; 1030 U/mL in [2]; 115 U/mL in test [3]; 1190 U/mL in [4]; 831 U/mL in [6]; 1020 U/mL in test [7]. In addition, the AAL reaction value in [8] stood at 32.3 U/mL; in test [9], 962 U/mL; in test [10], 855 U/mL; in test [12], 1010 U/mL; in test [13], 926 U/mL; in test [14], 988 U/mL. Also, the AAL reaction value in [16] worked out at 1150 U/mL; in test [17], 1060 U/mL; in test [18], 1100 U/mL; in [19], 1210 U/mL. Moreover, the AAL reaction value (mean value) came out at 1040 U/mL in [5], 932 U/mL in test [11], 993 U/mL in [15] and 1070 U/mL in test [20]. The AAL reaction value (median value) in test [5] stood at 1040 U/mL; in [11], 932 U/mL; in test [15], 993 U/mL; in test [20], 1010 U/mL; in test [21] it was 1030 U/mL; in test [22], 1010 U/mL. In addition, the AAL reaction value (average value) turned out to be 769 U/mL in test [21] and 1020 U/mL in [22].
With “Amanita muscaria lectin (AML), biotin-labeled”, the AML reaction value was 151 U/mL in test [23], 21.2 U/mL in test [24] and 141 U/mL in [25].
In the case of “Naematoloma sublateritium lectin (NSL), biotin-labeled”, the NSL reaction value was determined as 283 U/mL in test [23], 42.3 U/mL in test [26], 178 U/mL in test [24] and 400 U/mL in test [25].
Turning to “Pholiota squarrosa lectin peptide (PhoSL peptide), biotin-labeled”, the PhoSL peptide reaction value in test [23] came out at 234 U/mL; in test [24] it was 1 U/mL; in test [25], 102 U/mL.
With “Stropharia rugosoannulata lectin (SRL), biotin-labeled”, the SRL reaction value was 234 U/mL in test [23], 16.8 U/mL in test [26], 20 U/mL in test [24] and 146 U/mL in [25].
